Assay [1] concerns the target T1, recombinant FOLR2-His (R&D Systems) (UniProt P14207 17-228, limits assumed).
T1 construct: not shown: His tag
The experiment in a line: ELISA, FOLR2-His immobilized on Ni-NTA plate. How it is done:
(§1) FOLR1 is a member of Folate Receptor family. Cross-reactivity of the anti-FOLR1 antibodies with the other members of the family FOLR2 and FOLR3 was assayed by ELISA. Recombinant protein FOLR2-His or FOLR3-His (R&D Systems) was immobilized to Ni-NTA plates (QIAGEN) and the anti-FOLR1 antibodies were added to the plates and incubated for 2 hours at room temperature. As positive controls for FOLR2 and FOLR3 ELISA polyclonal anti-FOLR2 and FOLR3 antibodies (R&D systems), respectively, were used. The formed antibody-antigen complexes were detected with hip-labeled goat anti-murine secondary antibody.

In assay [2] the target is T2, recombinant human FOLR1-murine IgG2a Fc protein (human; murine, UniProt P15328 25-234, limits assumed).
T2 construct: also called humanFOLR1-murine Fc2a; FOLR1-Fc; not shown: murine IgG2a Fc
T2 sequence (P15328 25-234 limits assumed): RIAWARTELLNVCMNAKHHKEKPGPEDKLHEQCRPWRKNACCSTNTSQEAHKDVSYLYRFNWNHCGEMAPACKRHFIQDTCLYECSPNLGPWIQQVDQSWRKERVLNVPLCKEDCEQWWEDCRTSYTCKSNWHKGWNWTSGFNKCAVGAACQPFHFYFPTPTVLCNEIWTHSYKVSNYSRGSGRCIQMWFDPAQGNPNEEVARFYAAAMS
The experiment in a line: ELISA, recombinant human FOLR1-murine Fc2a immobilized on the plate, hrp goat anti-murine secondary. The protocol:
The binding affinity of the anti-FOLR1 antibodies was examined by ELISA where recombinant humanFOLR1-murine Fc2a protein was used as the antigen. The recombinant protein was immobilized on microtiter plates, and the antibodies were added at a range of concentrations to the plates. The plates were incubated for two hours at room temperature, washed with PBS supplemented with 0.05% Tween-20, and incubated with hrp-labeled goat anti-murine secondary antibody for one hour at room temperature. The plates were washed with PBS/Tween-20 again, and bound hrp-conjugated antibody was detected by adding the hrp-substrate TMB (Bio-FX).

The target of assay [3] is T3, recombinant FOLR3-His (R&D Systems) (UniProt P41439 23-245, limits assumed).
T3 construct: not shown: His tag
T3 sequence (P41439 23-245 limits assumed): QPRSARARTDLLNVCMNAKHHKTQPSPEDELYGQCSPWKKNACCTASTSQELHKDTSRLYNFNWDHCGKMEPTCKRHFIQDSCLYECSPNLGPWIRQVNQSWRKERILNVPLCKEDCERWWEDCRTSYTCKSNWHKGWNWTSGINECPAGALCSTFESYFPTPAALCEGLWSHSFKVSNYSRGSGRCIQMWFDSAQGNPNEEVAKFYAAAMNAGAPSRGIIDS
The experiment in a line: ELISA, FOLR3-His immobilized on Ni-NTA plate. How it is done: as §1

Assay [4] deals with T4, human folate receptor 1 (FOLR1) on cells, in cell lysates and in FFPE tissues (human, UniProt P15328 25-234, N-glycosylated at positions 69, 161 and 201).
T4 construct: also called folate receptor alpha; FR-alpha
T4 sequence (P15328 25-234): as the sequence (P15328 25-234 limits assumed) above
Kind of assay: Western blot of cell lysates. The protocol: (§2) Human FOLR1 has three potential sites for N-glycosylation at positions 69, 161 and 201 (UniProt), and, as reported in literature, all three sites are glycosylated. To characterize the nature of the epitopes recognized by the anti-FOLR1 antibodies described herein, binding experiments were performed with deglycosylated and non-treated receptor. Of the generated anti-FOLR1 clones, only clone 2.1 was used in the study because, based on the sequencing data, the clones are related and likely to bind to the same epitope. In addition to clone 2.1, two other anti-FOLR1 antibodies were included: huMov19 (WO 2011/106528) and clone BN3.2 (Leica). In order to deglycosylate FOLR1, recombinant human FOLR1 or lysates of FOLR1-positive KB or Igrov-1 cells were treated with a mixture of deglycosylation enzymes (Enzymatic DeGlycoMX Kit, QA-bio) according to the Manufacturer's protocol. Then, samples of treated and non-treated FOLR1 were used in ELISA and Western blot analysis. […] After 2 h incubation, antibody-antigen complexes were detected with hip-labeled goat anti-human (for huMov19) or anti-murine (for 2.1) secondary antibody (FIG. 7). […] The membrane was incubated with the anti-FOLR1 antibodies 2.1, huMov19, or BN3.2, and the antigen-antibody complexes were detected with the appropriate secondary anti-murine or anti human antibodies conjugated with horse-radish peroxidase (FIG. 8).

The target in assay [5] is T5, deglycosylated recombinant human FOLR1 (human, UniProt P15328 25-233, limits assumed, glycans removed with a mixture of deglycosylation enzymes (Enzymatic DeGlycoMX Kit)).
T5 construct: also called deglycosylated FOLR1
T5 sequence (P15328 25-233 limits assumed): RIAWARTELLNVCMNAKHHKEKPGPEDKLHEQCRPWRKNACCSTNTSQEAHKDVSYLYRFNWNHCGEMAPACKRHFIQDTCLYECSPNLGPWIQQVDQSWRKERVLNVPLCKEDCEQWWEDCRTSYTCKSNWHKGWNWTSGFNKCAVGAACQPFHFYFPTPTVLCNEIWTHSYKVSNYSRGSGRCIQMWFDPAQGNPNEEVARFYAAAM
The experiment in a line: ELISA, deglycosylated FOLR1 immobilized on the plate, hrp goat anti-human secondary. The protocol:
as §2

Assay [6] has as its target T6, deglycosylated human FOLR1 in lysates of KB and Igrov-1 cells (human, UniProt P15328 25-234, glycans removed with a mixture of deglycosylation enzymes (Enzymatic DeGlycoMX Kit)).
T6 construct: Endogenous FOLR1 of cell lysates after enzymatic deglycosylation; also called deglycosylated lysates
Kind of assay: Western blot of enzymatically deglycosylated cell lysates. How it is done: as §2

Assay [7] has as its target T7, recombinant human FOLR1 (non-treated) (human, UniProt P15328 25-233, limits assumed, N-glycosylated (non-treated)).
T7 construct: also called huFOLR1 recombinant protein; non-treated FOLR1
Kind of assay: ELISA, FOLR1 immobilized on the plate, hrp goat anti-human secondary. The protocol:
as §2

Experimental findings from US20150093388A1 (IMMUNOGEN, published 2015) are described below.

T1 sequence (P14207 17-228 limits assumed): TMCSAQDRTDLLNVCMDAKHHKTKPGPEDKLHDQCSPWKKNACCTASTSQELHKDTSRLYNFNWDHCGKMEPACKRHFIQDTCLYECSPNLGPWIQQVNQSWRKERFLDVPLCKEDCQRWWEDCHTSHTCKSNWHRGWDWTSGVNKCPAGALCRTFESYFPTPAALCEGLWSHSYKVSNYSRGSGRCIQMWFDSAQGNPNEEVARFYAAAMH
T6 sequence (P15328 25-234): as the sequence (P15328 25-234 limits assumed) above
T7 sequence (P15328 25-233 limits assumed): as the sequence (P15328 25-233 limits assumed) above

B1: muFRIHC2-1 (anti-FOLR1 antibody 353.2-1, ATCC PTA-120197) (antibody, mouse IgG1, kappa, V domains shown)
VH: QVQLQQSGPELVKPGASVRISCKASGYTFTNSYIHWVKKRPGQGLEWIGWIYPESLNTQYNEKFKAKATLTADKSSSTSYMQLSSLTSEDSAVYFCARRGIYYYSPYALDHWGQGASVTVSS
VL: DVVLTQTPLSLPVNIGDQASISCKSSKSLLNSDGFTYLDWYLQKPGQSPQLLIYLVSNHFSGVPDRFSGSGSGTDFTLKISRVEAEDLGVYYCFQSNYLPLTFGGGTKLEIKR
notes: also called FOLR1-2.1
As to B1, the binding result in assay [1] is reported as “no binding (tested: 10^-8 M)”; in assay [3], “no binding (tested: about 3x10^-8 M)”. For the same molecule, the EC50 in assay [2] came out at 0.5 nM.

B2: muFRIHC5-7 (anti-FOLR1 antibody 353.5-7) (antibody, mouse IgG1, kappa, V domains shown)
VH: QVQLQQSGPEVVKPGASVRISCKASGYTFTNYYIHWVKQRPGQGLEWIGWIYPGSFNVEYNEKFKAKATLTADKSSSTVYMQLSSLTSEDSAVYFCARRGIYFYSPYALDYWGQGASVTVSS
VL: DVVLTQTPLSLPVNIGDQASISCKSTESLLNSDGFTYLDWYLQKPGQSPQLLIYLVSNHFSGVPDRFSGSGSGTDFTLKISRVEAEDLGVYYCFQSNYLPLTFGGGTKLEVKR
notes: Murine monoclonal; also called clone 5.7
Turning to B2, the figures for the binding result in assay [1] and in assay [3] were “no binding (tested: 10^-8 M)” and “no binding (tested: about 3x10^-8 M)”, respectively.

B3: anti-FOLR1 antibody 353.9-21 (antibody, mouse IgG1, kappa, V domains shown)
VH: QVQLQQSGPDLVKPGASVRISCKASGFTFTNYYIHWVKQRPGQGLEWIGWIYPENVNVRYNDKFKAKATLTADKSSSTAYMQLSSLTSEDSAVYFCARRGIYYYSPYAMDYWGQGASVTVSS
VL: DVVLTQTPLSLPVNLGDQASISCKSTKSLLNSDGFTYLDWYLQKPGQSPQLLIYLVSNHFSGVPDRFSGSGSGTDFTLKISRVEAEDLGVYYCFQSNYLPLTFGGGTKLEIKR
notes: Sister subclone of 9.20; also called clone 9.21
B3: the binding result in assay [1] was “no binding (tested: 10^-8 M)”; in assay [3] it was “no binding (tested: about 3x10^-8 M)”.

B4: huMov19 (antibody, human IgG1, kappa, V domains shown)
VH: QVQLVQSGAEVVKPGASVKISCKASGYTFTGYFMNWVKQSPGQSLEWIGRIHPYDGDTFYNQKFQGKATLTVDKSSNTAHMELLSLTSEDFAVYYCTRYDGSRAMDYWGQGTTVTVSS
VL: DIVLTQSPLSLAVSLGQPAIISCKASQSVSFAGTSLMHWYHQKPGQQPRLLIYRASNLEAGVPDRFSGSGSKTDFTLTISPVEAEDAATYYCQQSREYPYTFGGGTKLEIKR
notes: the full chains labelled huMov19 HC (55) and huMov19 LCv1.60 (57) are used; also called M9346A; antibody of IMGN853
Turning to B4, the binding result in assay [4], in assay [5], in assay [6] and in assay [7] was “binds” throughout.
